Results on 2 substances are retold here after PMC6368601.

This test concerns the target taxol-stabilized microtubules polymerized from bovine brain tubulin dimers (bovine) (UniProt Q6B856). Description: co-sedimentation; 100 nM ISB (WT, MTBM or Δ20) with various concentrations of taxol-stabilized microtubules; BRB80, 1 mM DTT, 50 mM NaCl, 20 uM paclitaxel; 15 min at room temperature; 50% glycerol cushion, 279,000 x g; blot with anti-Borealin; apparent Kd from a one-site specific binding fit of three experiments.

“INCENP^1-58-Survivin-Borealin complex (ISB^WT), centromere-targeting region of human CPC (from UniProt Q9NQS7 1-58; O15392 1-142; Q53HL2 1-280)”: the Kd came out at 164 nM.

“ISB^Δ20: INCENP^1-58-Survivin-Borealin lacking the N-terminal 20 amino acids of Borealin (from UniProt Q9NQS7 1-58; O15392 1-142; Q53HL2 21-280) (complex)”: the Kd turned out to be 750 nM.
